Laboratory results: paper PMC9597577, “Mutant Ras and inflammation-driven skin tumorigenesis is suppressed via a JNK-iASPP-AP1 axis” (Cell Reports, 2022)

T1: iASPP CTD (625–828) (UniProt Q8WUF5 625-828)
T1 chain: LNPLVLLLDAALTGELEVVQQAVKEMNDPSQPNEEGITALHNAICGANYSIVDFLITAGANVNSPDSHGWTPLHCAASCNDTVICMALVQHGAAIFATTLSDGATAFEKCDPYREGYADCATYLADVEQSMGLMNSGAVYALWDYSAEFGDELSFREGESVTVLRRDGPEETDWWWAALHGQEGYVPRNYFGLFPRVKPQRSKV

T2: ASPP1 CTD (887–1090) (Homo sapiens (Human), UniProt Q96KQ4)
T2 chain: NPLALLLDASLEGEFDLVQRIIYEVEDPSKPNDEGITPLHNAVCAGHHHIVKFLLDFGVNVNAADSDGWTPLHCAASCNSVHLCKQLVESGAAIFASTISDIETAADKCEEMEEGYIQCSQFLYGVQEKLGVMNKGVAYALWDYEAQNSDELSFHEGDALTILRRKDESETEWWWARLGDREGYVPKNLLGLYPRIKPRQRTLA

T3: ASPP1 CTD (887–1090) (Homo sapiens (Human), UniProt Q96KQ4)
T3 chain: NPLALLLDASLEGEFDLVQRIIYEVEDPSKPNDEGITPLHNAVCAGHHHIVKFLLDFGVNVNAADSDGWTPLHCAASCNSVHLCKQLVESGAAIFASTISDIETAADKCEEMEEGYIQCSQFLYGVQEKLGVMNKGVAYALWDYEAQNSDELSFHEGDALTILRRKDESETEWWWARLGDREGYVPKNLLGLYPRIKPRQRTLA

T4: Halo-tagged iASPP CTD (625–828) (UniProt Q8WUF5 625-828)
T4 construct: iASPP C-terminal domain (CTD) with the SH3 domain, residues 625-828; also called iASPP CTD fused to Halo-Tag; not shown: HaloTag, N-terminal, kept
T4 sequence (looked up): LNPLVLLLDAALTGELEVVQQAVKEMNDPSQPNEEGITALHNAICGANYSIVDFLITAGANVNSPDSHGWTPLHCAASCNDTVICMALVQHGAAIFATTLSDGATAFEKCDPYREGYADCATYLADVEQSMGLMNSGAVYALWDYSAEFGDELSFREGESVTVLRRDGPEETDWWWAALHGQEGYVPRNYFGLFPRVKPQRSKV


Legend:
[1] = target: T1, iASPP CTD (625–828); assay: ITC
[2] = target: T2, ASPP1 CTD (887–1090); assay: ITC
[3] = target: T3, ASPP1 CTD (887–1090); assay: ITC
[4] = target: T4, Halo-tagged iASPP CTD (625–828); assay: pull-down; displacement pull-down: 25 μM JunD or PP1 peptide added to Halo-iASPP CTD on magnetic Halo beads, read by loss of in vitro translated Myc-tagged protein; conditions: both partners purified

| Kd [1] | binding result [2] | binding result [3] | binding result [4] | Binder |
| --- | --- | --- | --- | --- |
| 4.58 µM | no binding | no binding |  | WLKPAAAPPPTPLRADGAPSA [JunD peptide (WLKPAAAPPPTPLRADGAPSA)] |
|  |  |  | binds | WNPGGRPITPPRNSA (leading tryptophan; PxxP-containing peptide derived from the phosphatase PP1 (PP1alpha), C-terminal tail; also called PP1 peptide; source: synthetic peptide (TUCF, custom made)) [PP1alpha peptide (WNPGGRPITPPRNSA)] |
